Reference: publication PMC5724930 (Biochemistry, 2017)
Changes are numbered by the printed parent chain. In names and notes the source's numbering stands.

B1: PanD(K119A) (enzyme, E. coli, UniProt P0A790 1-126, looked up)
chain: MIRTMLQGKLHRVKVTHADLHYEGSCAIDQDFLDAAGILENEAIDIWNVTNGKRFSTYAIAAERGSRIISVNGAAAHCASVGDIVIIASFVTMPDEEARTWRPNVAYFEGDNEMKRTAAAIPVQVA
B2: aspartate α-decarboxylase (PanD), wild type (from pET28apanD, for SEC) (enzyme, E. coli, UniProt P0A790 1-126, looked up)
chain: B1 chain with A119K

Target: the molecule itself
Experiment: SEC; mixtures of the purified proteins; details in the Supporting Information

Protein | stoichiometry N
B1 | 4
B2 | 4
